Experiments:
DDX1 (DDX1-728) [1] = molecular target: T1, DDX1 (DDX1-728) (Homo sapiens, UniProt Q92499 1-728); test: EMSA
T1 sequence: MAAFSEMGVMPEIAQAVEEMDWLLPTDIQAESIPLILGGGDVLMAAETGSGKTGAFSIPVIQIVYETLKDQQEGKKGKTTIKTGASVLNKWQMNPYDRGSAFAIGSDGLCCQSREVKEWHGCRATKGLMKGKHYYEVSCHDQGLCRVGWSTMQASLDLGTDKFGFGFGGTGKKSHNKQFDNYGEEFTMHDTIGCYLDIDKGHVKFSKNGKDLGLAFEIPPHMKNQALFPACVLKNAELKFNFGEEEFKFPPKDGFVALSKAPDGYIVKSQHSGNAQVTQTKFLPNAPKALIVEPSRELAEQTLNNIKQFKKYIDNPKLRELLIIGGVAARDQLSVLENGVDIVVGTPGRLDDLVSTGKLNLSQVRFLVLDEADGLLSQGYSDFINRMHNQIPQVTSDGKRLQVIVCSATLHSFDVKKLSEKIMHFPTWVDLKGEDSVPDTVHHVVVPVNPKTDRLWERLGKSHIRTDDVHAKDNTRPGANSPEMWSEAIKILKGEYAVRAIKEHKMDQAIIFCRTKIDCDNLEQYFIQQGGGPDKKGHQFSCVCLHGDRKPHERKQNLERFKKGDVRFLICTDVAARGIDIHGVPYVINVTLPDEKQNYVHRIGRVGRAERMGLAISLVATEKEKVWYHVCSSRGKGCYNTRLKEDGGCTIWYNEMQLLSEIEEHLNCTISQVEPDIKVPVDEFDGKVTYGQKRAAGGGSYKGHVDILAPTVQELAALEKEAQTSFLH

DDX1 (DDX1-728) [2] = molecular target: T1, DDX1 (DDX1-728); test: mantdADP displacement fluorescence titration, global fit

UUUUUUUUUU (ssRNA) [10mer polyU RNA, FAM]: binds (DDX1 (DDX1-728) [1]).

AGCACCGUAAAGA (ssRNA) [13mer mixed sequence RNA, FAM]: binds (DDX1 (DDX1-728) [1]).

Binder AAAAAAAAAA (ssRNA) [10mer polyA RNA] has a Kd (DDX1 (DDX1-728) [2]) of 360 ± 120 nM.
